Consider four molecules from patent publication US20230183381A1 (VIRTUOSO BINCO, published 2023).

The EC50 is the concentration that produces a half-maximal response.

Assay [1] concerns the target T1, human CD38 extracellular domain (hCD38, recombinant, with AviTag) (human, UniProt P28907 43-300).
T1 construct: also called recombinant CD38; huCD38
In words: ELISA on human CD38 ECD, EC50 class. On the technique in general: ELISA stands for enzyme-linked immunosorbent assay.

Assay [2] addresses T2, recombinant BCMA (Sino Biological 10620-H03H-B) (human, UniProt Q02223 1-54).
T2 construct: Bought protein; also called human BCMA
T2 sequence (looked up): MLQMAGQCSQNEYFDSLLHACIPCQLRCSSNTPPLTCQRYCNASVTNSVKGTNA
The assay is described as follows: ELISA, plate coated with recombinant BCMA.

B1: Anti-CD38 LC_Y92A (antibody, V domains shown)
VH: EVQLLESGGGLVQPGGSLRLSCAASGFSFNNYWIIWIRQAPGKGLEWVAAIYSPSGDIKYYADWAKGRFTVSKDNSKNTVYLQMNSLRAEDTAVYYCARELSGSSYEGYFESWGQGTLVTVSS
VL: DIQLTQSPSTLSASVGDRVTITCRSSQSVYGHNWLAWYQQKPGKAPKLLMYRASNLASGVPSRFSGSGSGTEFTLTISSVQPDDFATYYCQGYASGGSYAFGGGTKVEIK
notes: Alanine variant of h18E4-19 with the parent VH
Regarding B1, the EC50 in assay [1] lay in the range of 0.02 to 0.1 nM.

B2: Anti-CD38 LC_Y96A (antibody, V domains shown)
VH: EVQLLESGGGLVQPGGSLRLSCAASGFSFNNYWIIWIRQAPGKGLEWVAAIYSPSGDIKYYADWAKGRFTVSKDNSKNTVYLQMNSLRAEDTAVYYCARELSGSSYEGYFESWGQGTLVTVSS
VL: DIQLTQSPSTLSASVGDRVTITCRSSQSVYGHNWLAWYQQKPGKAPKLLMYRASNLASGVPSRFSGSGSGTEFTLTISSVQPDDFATYYCQGYYSGGSAAFGGGTKVEIK
notes: as for B1
Consider B2, for which the concentration giving a half-maximal response (EC50) in assay [1] was in the range of 0.1 to 0.5 nM.

B3: Anti-BCMA.BMK2_ADCC.high (antibody, human IgG1, kappa)
heavy: EVQLQQSGAVLARPGASVKMSCKGSGYTFTNYWMHWVKQRPGQGLEWIGATYRGHSDTYYNQKFKGKAKLTAVTSTSTAYMELSSLTNEDSAVYYCTRGAIYNGYDVLDNWGQGTLVTVSSASTKGPSVFPLAPSSKSTSGGTAALGCLVKDYFPEPVTVSWNSGALTSGVHTFPAVLQSSGLYSLSSVVTVPSSSLGTQTYICNVNHKPSNTKVDKKVEPKSCDKTHTCPPCPAPELLGGPDVFLFPPKPKDTLMISRTPEVTCVVVDVSHEDPEVKFNWYVDGVEVHNAKTKPREEQYNSTYRVVSVLTVLHQDWLNGKEYKCKVSNKALPLPEEKTISKAKGQPREPQVYTLPPSRDELTKNQVSLTCLVKGFYPSDIAVEWESNGQPENNYKTTPPVLDSDGSFFLYSKLTVDKSRWQQGNVFSCSVMHEALHNHYTQKSLSLSPGK
light: DIQLTQTTSSLSASLGDRVTISCSASQDISNYLNWYQQKPDGTVELVIYYTSNLHSGVPSRFSGSGSGTDYSLTIGYLEPEDVATYYCQQYRKLPWTFGGGSKLEIKRRTVAAPSVFIFPPSDEQLKSGTASVVCLLNNFYPREAKVQWKVDNALQSGNSQESVTEQDSKDSTYSLSSTLTLSKADYEKHKVYACEVTHQGLSSPVTKSFNRGEC
notes: Monoclonal IgG1 with ADCC-high Fc mutations; also called ADCC-high variant of Anti-BCMA BMK2 antibody
As to B3, the EC50 in assay [2] is ~0.02 nM.

B4: Anti-BCMA (antibody, human IgG1, kappa)
heavy: not shown
light: DIQLTQTTSSLSASLGDRVTISCSASQDISNYLNWYQQKPDGTVELVIYYTSNLHSGVPSRFSGSGSGTDYSLTIGYLEPEDVATYYCQQYRKLPWTFGGGSKLEIKRTVAAPSVFIFPPSDEQLKSGTASVVCLLNNFYPREAKVQWKVDNALQSGNSQESVTEQDSKDSTYSLSSTLTLSKADYEKHKVYACEVTHQGLSSPVTKSFNRGEC
notes: also called Anti-BCMA BMK2 antibody; Anti-BCMA.BMK2
As for B4, the EC50 in assay [2] is ~0.02 nM.
